Experimental data from patent US20160146829A1 (University of California, published 2016).
Ends that are not written are not given here. * marks the point of attachment. Biotin = O=C1N[C@H]2[C@H](CS[C@H]2CCCCC(=O)*)N1

Key:
[1] = target: T1, pCp-1B, biotinylated alemtuzumab binding peptide (not fully specified (bridges); also: incubated with sodium tetrathionate (oxidizing) before binding); assay: peptide ELISA, biotinylated peptide on NeutrAvidin plate, antibody diluted in TBST, anti-human IgG POD detection
T1 construct: Synthetic peptide (Sigma-Genosys); For ELISA it was captured on NeutrAvidin plates; also called Cp-1 (biotinylated peptide)
T1 peptide: ACGSLSPSSCGGK(Biotin)

[2] = target: T1, pCp-1B, biotinylated alemtuzumab …; assay: nano-pore optical interferometry (SkiPro); biotinylated peptide on streptavidin chip, whole mAb in solution

B1: alemtuzumab (antibody, V domains shown)
VH: QVQLQESGPGLVRPSQTLSLTCTVSGFTFTDFYMNWVRQPPGRGLEWIGFIRDKAKGYTTEYNPSVKGRVTMLVDTSKNQFSLRLSSVTAADTAVYYCAREGHTAAPFDYWGQGSLVTVSS
VL: DIQMTQSPSSLSASVGDRVTITCKASQNIDKYLNWYQQKPGKAPKLLIYNTNNLQTGVPSRFSGSGSGTDFTFTISSLQPEDIATYYCLQHISRPRTFGQGTKVEIKR
[1]
  EC50 (read off the curve): ~0.3 µg/mL
[2]
  Kd: 163 nM
  koff: 0.00132 s⁻¹
  kon: 8130 M⁻¹ s⁻¹
